Experimental data published in patent publication US20260227403A1 (HENRY M JACKSON FOUNDATION FOR THE ADVANCEMENT OF MILITARY …, published 2026).

Tests used:
[1] = target: T1, ETV1 immunogenic peptide P1 (human); assay: SPR (Biacore T200), antibody amine-coupled on CM5 chip, peptide as analyte, 1:1 binding fit
T1 construct: 27 amino acid peptide, ETV1 residues 212-238; also called immunogen peptide; ETV1 P1 peptide
Experimental: Affinity measurements using SPRi was performed using a Biacore T200 instrument (Cytiva, Marlborough, MA) by Creative Biolabs (Shirley, NY, USA). The ETV1 (29E4) antibody was directly immobilized onto a CM5 sensor chip surface using an amine coupling kit (Cytiva). Before immobilization, the CM5 sensor surface was activated using a mixture of 400 mM 1-ethyl-3-(3-dimethylaminopropyl) carbodiimide (EDC) and 100 mM N-hydroxysuccinimide (NHS). The ETV1 antibody was diluted to 40 μg/ml in immobilization buffer (10 mM NaAc, pH 4.5) and injected into Fc4 sample channel at a flow rate of 10 μL/min. The amount of antibody (ligand) immobilized was about 5,000 RU. The chip was deactivated by 1 M Ethanolamine hydrochloride-NaOH (GE Healthcare Life Sciences, Piscataway, NJ) at a flow rate of 10 μL/min for 420 seconds. The reference Fc3 channel underwent similar procedures but without injecting the ligand. […] Different concentrations of the […] were then injected into the cell over both channels at a flow rate of 30 μL/min, with a contact time of 90 seconds, followed by a dissociation time of 210 seconds. The surface was regenerated with 10 mM Glycine-HCl, pH 1.5 after each injection to prepare for the injection of the next antibody dilution sample. Data analysis was performed on the Biacore T200 computer and with the Biacore T200 evaluation software, using the steady-state affinity model or 1:1 binding model.
The binding of the 29E4 mAb to its epitope sequence was further analyzed by using SPRi. After immobilizing the ETV1 mAb onto a matrix of dextran on the surface of a Sensor Chip to a level of 5000 response units (RU) with standard amine coupling (FIG. 4, panel A), different concentrations of the serially diluted peptide were then injected as an analyte into the cell over both channels for 300 seconds (contact time of 90 seconds, followed by a dissociation time of 210 seconds) to give a response of about 180 RU. The different binding affinity of each antibody dilution is depicted in the overlay plot of SPR sensorgrams and fitting curves (FIG. 4, panel B).

[2] = target: T2, P10 (alanine substituted, FIG. 3 panel E); assay: ELISA: 500 ng peptide coated per well, 29E4 at 40 ng/mL, HRP goat anti-rabbit Ig 1:16,000, ABS 450 nm, duplicates [CONT. 2]
T2 construct: also called I220 to alanine
Source text: (§1) HRP Goat anti-rabbit Ig was applied at 1:16,000 dilution in all reactions.
(§2) Peptides were synthesized to achieve ≥70% HPLC purity by a commercial vendor (GenScript Biotech, Piscataway, NJ). Peptides were reconstituted in either water, or with addition of acetonitrile, methanol, 10% acetic acid, or DMSO, depending on the overall charge of each peptide. Key residues required for mAb binding were probed by ELISA using overlapping peptides, truncated peptides and alanine substituted peptides. Reactions were performed in duplicate using NUNC 96-well flatbottom MaxiSorp plates (Thermo Scientific). After coating each well with 500 ng of peptide in 100 μL coating buffer (50 mM NaHCO₃, pH 9.6), the plates were sealed and incubated at 4° C. overnight. […] Plates were then washed once with wash buffer, incubated with 100 μL mAb 29E4 (serially diluted from 1 mg/mL) for 1 hour at 37° C. Plates were further washed four times with wash buffer, and then incubated at 37° C. with 100 μL of a horse radish peroxidase (HRP)-conjugated secondary antibody against the primary antibody, diluted 1:16,000 according to manufacturer's protocols (KPL, Inc., Gaithersburg, MD). After washing four times with wash buffer, 100 μL of K-Blue Aqueous TMB substrate (Neogen, Lexington, KY) was added to the plates and incubated uncovered for 30 minutes at room temperature. To stop the reaction, 100 μL of 2 N Sulphuric acid was added to each well and absorbance were measured immediately at 450 nm. All dilutions of reagents were performed in ELISA diluent (20% NGS in 1×PBS with 0.1% Triton-X 100).

[3] = target: T3, P8 (alanine substituted, FIG. 3 panel E); assay: as above
T3 construct: also called P218 to alanine
Source text: as §1, §2

[4] = target: T4, ERG3 (pCMV-ERG3 plasmid, Exons 5-16, NM_001136154) (UniProt P11308-3 40-486); assay: immunoblot of cell lysates (HEK-293 2 µg per lane) probed with 29E4; the protein is shown present in panel C
T4 construct: Expressed in HEK-293 cells and tested as cell lysate on an immunoblot; also called ETS Transcription Factor ERG
T4 sequence (looked up): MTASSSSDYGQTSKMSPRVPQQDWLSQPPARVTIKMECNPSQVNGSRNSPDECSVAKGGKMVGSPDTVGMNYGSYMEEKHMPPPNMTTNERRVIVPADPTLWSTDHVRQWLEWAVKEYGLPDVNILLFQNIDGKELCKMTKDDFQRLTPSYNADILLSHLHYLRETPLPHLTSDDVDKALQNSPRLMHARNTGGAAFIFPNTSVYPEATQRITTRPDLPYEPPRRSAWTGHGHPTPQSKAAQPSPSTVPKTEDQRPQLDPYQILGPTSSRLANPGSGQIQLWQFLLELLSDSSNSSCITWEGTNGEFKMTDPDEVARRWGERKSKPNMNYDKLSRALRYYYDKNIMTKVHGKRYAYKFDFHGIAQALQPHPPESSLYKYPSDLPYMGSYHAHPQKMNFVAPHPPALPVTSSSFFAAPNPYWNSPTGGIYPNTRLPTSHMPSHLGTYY
Experimental: Immunoblots using antibodies against ETV1 (A and H), ETV4 (B), ERG (C), SPDEF (D), FLI1 (E), FLAG (F), and GAPDH (G), as a loading control. […] PC3 cells were transfected with 25 nM non-targeting (NT) siRNA or ETV-1 siRNA oligos (lanes 1 and 2, respectively). […] were infected with either a control vector (lane 10) or adenoviral vector expressing FLI1 (lanes 11).
Cell lysates were then cleared by centrifugation at 10,000×g for 15 minutes at 4° C. and transferred to fresh tubes. Protein concentration was measured using Protein Assay Reagent (Bio-Rad, Hercules, CA). […] Separated proteins were transferred onto PVDF membranes using a Trans-Blot SD semi-dry transfer cell (BioRad) at 25 V for 90 minutes. Membranes were blocked in blocking buffer (Tris buffered saline with 0.25% Tween 20 (TBST) containing 1% BSA) for one hour at room temperature before incubation with primary antibodies (1 ng/mL) for 12 hours at 4° C. Membranes were then washed with wash buffer (TBST) in three ten-minute washes before treatment with IRDye 680RD conjugated goat anti-rabbit or IRDye 800 RD conjugated goat anti-mouse secondary antibodies (LI-COR Biosciences, Lincoln, NE) for three hours at room temperature.

T1 sequence (peptide, as listed by the source): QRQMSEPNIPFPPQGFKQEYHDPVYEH
T2 sequence (peptide, as listed by the source): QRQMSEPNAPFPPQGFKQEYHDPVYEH
T3 sequence (peptide, as listed by the source): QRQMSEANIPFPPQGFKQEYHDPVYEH

Kd [1]: 0.479 nM | koff [1]: 0.000149 s⁻¹ | kon [1]: 311000 M⁻¹ s⁻¹ | binding result [2]: binds | binding result [3]: binds | binding result [4]: no binding
B1: ETV1 rabbit monoclonal antibody (29E4) (antibody, V domains shown)
VH: QELEESGGDLVKPGASLTLTCTASGFFFSAENHICWVRQAPGKGLEWIGCVYIGSYVGGSGDPYYASWAKGRFTISKTSSTTVTLQMSSLTAADTATYFCARDLGSLWGPGTLVTVSS
VL: DVVMTQTASSVSAAVGGTVTIACQSSQSVYDNNNLAWFQQKPGQPPKRLIYSASTLASGVSSRFKGSGYGTQFTLTISDVQCDDAATYYCVGAFSGYIFVFGGGTEVVVK
notes: constant regions are not; also called 29E4 mAb; ETV1 29E4 mAb
